T1: Mcl-1, Q07820
T1 chain: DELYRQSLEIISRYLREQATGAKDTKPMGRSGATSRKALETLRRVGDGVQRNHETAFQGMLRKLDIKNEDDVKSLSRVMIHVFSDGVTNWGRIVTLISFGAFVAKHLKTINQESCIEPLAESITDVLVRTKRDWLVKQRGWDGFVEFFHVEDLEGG

T2: Bcl-w, Q92843
T2 chain: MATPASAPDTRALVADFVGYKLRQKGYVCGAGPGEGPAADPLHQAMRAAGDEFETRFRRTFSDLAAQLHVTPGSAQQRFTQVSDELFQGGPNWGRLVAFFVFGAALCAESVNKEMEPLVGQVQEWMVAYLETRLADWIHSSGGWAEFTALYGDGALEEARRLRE

T3: Bfl-1, Q16548
T3 chain: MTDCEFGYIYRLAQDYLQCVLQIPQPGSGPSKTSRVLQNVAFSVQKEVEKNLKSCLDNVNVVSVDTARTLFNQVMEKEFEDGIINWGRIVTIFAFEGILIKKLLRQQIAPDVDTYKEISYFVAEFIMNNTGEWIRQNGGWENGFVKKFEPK


Experiments:
Assay in all cases: peptide SPOT array, c-Myc-tagged receptor at 1 uM or 100 nM, anti-c-Myc-Cy3
Bcl-2, P10415 = target: Bcl-2, P10415
Mcl-1, Q07820 = target: T1, Mcl-1, Q07820
Bcl-w, Q92843 = target: T2, Bcl-w, Q92843
Bcl-xL, Q07817 = target: Bcl-xL, Q07817
Bfl-1, Q16548 = target: T3, Bfl-1, Q16548

Chain of Bcl-xL, Q07817 (Q07817 1-209): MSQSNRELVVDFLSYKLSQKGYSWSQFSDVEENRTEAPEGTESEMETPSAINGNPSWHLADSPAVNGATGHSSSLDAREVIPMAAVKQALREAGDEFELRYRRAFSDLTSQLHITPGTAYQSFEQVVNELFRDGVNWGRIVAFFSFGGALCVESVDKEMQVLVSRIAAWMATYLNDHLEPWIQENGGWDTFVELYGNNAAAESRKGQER
Chain of Bcl-2, P10415 (P10415 1-217): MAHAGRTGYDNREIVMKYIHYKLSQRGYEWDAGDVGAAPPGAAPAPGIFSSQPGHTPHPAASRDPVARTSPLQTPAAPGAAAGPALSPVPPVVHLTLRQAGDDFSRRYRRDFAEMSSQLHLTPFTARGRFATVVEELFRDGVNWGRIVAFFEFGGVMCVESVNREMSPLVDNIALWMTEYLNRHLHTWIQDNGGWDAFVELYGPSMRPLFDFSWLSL

Binder	SPOT signal as a fraction of Bim BH3's signal on the same receptor and array (Bcl-2, P10415)	SPOT signal as a fraction of Bim BH3's signal on the same receptor and array (Mcl-1, Q07820)	SPOT signal as a fraction of Bim BH3's signal on the same receptor and array (Bcl-w, Q92843)	SPOT signal as a fraction of Bim BH3's signal on the same receptor and array (Bcl-xL, Q07817)	SPOT signal as a fraction of Bim BH3's signal on the same receptor and array (Bfl-1, Q16548)
DLSSTFVSLALRKVGDWPLSARREKG [TTC31]	0.2	0.47	1.09	0.29	0.75
LNELYQRAKKLSKAGDNIPEEQPVAS [TMX2]	0.02	0.05	0.07	0.13	0.07
VIKQRRLPDQLSKLADRIQLSGRYYL [RAPGEF2]	0.49	0.69	1.08	1.08	0.91
ELLRLRQHWKLRKVGDKILGDLSYRS [MED17]	0.33	0.48	1.03	0.89	0.78
DGLDLPSETDLRILGCELIQAAGILL [CCNL1]	0.01	0.03	0.01	0.03	0.01
PFKKMDFSRNLYDIGEQLDSEDLASL [CASP8]	0.02	0.05	0.03	0.07	0.02
SCMATVIHNPLKALGDQFYKEAIEHC [DPF3]	0.15	0.02	0.2	0.13	0.03
NMSNYSSSSLLSGAGKDSLVEHDEEF [KIAA0367]	0.01	0.02	0.02	0.03	0.01
KWTAEEVVLWLEQLGPWASLYRERFL [BFAR]	0.02	0.05	0.03	0.07	0.04
DATHDEAVQALKRAGKEVLLEVKYMR [SNTB1]	0.01	0.02	0.02	0.04	0.03
GAQHSTMTSTLRRLGEDIFKGVVTKG [CCDC138]	0.09	0.43	0.64	0.12	0.45
